Measurements from patent US7211420B1, “Process for oxidizing terpenes” (ISIS Innovation Limited, priority 1998, dated 2007).

Key:
Assay type in all cases: biochemical
[1] = Oxidation of L-limonene by P450cam mutants, product proportions by GC; conditions: substrate L-Limonene
Experimental: (§1) For simple screening the substrate can be added to culture and the incubation continued. However, due to impurities from the culture media the cells were generally washed twice with 0.5 vol. of buffer P, (KH2PO4 6.4 g, K2HPO4.3H2O 25.8 g, H2O to 4 liters, pH 7.4) and resuspended in 0.25 vol. oxygen saturated buffer P containing 24 mM glucose. Substrate was added to 1 mM and the incubation continued at 30° C. The reaction was allowed to run for 24 hours with periodic additions of substrate and glucose.
(§2) The reaction was analysed by extracting 1 ml of the incubation mixture with 250 μl of ethylacetate. After centrifuging in a microcentrifuge at 13,000 g for 2 minutes, 2 μl of the organic extract was injected onto a 0.25 mm×30 m DB-1 gas chromatography column in a Fisons GC 8000 series gas chromatograph. The samples were carried through the column using helium carrier gas and the compounds present were detected using a flame ionisation detector.

[2] = Oxidation of α-pinene by P450cam mutants, product proportions by GC; conditions: substrate α-Pinene
Experimental: as §1, §2

[3] = Oxidation of valencene by P450cam mutants, product proportions by GC; conditions: substrate Valencene
Experimental: as §1, §2

[4] = single oxygen insertion products only, 30 m DB-1 GC column

B1: Wild-type: Wild-type P450cam haem monooxygenase from Pseudomonas putida, sequence in Table 7 (protein, UniProt P00183 2-415, looked up)
Camphor 5-monooxygenase: TTETIQSNANLAPLPPHVPEHLVFDFDMYNPSNLSAGVQEAWAVLQESNVPDLVWTRCNGGHWIATRGQLIREAYEDYRHFSSECPFIPREAGEAYDFIPTSMDPPEQRQFRALANQVVGMPVVDKLENRIQELACSLIESLRPQGQCNFTEDYAEPFPIRIFMLLAGLPEEDIPHLKYLTDQMTRPDGSMTFAEAKEALYDYLIPIIEQRRQKPGTDAISIVANGQVNGRPITSDEAKRMCGLLLVGGLDTVVNFLSFSMEFLAKSPEHRQELIERPERIPAACEELLRRFSLVADGRILTSDYEFHGVQLKKGDQILLPQMLSGLDERENACPMHVDFSRQKVSHTTFGHGSHLCLGQHLARREIIVTLKEWLTRIPDFSIAPGAQIQHKSGIVSGVQALPLVWDPATTKAV
[1]
  Comments: Very small quantities
[1]; [4]
  Approximate proportion of Product at 6.10–6.20 min: 30%
  Approximate proportion of product Isopiperitenol (6.60–6.70 min): 70%
[2]
  Approximate proportion of product Pinene oxide: 10%
  Approximate proportion of product Verbenol: 30%
  Approximate proportion of product Verbenone: 10%
  Remaining other products (Comments): Remaining 50% other products
[3]
  Comments: Many small peaks
